Entries after “also recorded” stand apart in the source; their conditions may differ.
Tested on: odorant receptor AaOR8
Experiment: Aequorin luminescence measurement in HEK293FT cells co-expressing AaOR8 and a co-receptor, 1-octen-3-ol added
Assay type: cell-based
Conditions: 1-octen-3-ol 10^-4 to 10^-10 M; for intensity of response (relative amount of luminescence) to 1-octen-3-ol: compared to cells that expressed original AaORCO or DmORCO
Procedure: HEK293FT cells (purchased from invitrogen, Inc.) were inoculated into 10-cm Petri dishes at a concentration of 3×10^6 cells/Petri dish, and the cells were cultured in DMEM medium containing 10% FBS (manufactured by Nacalai Tesque, Inc.) for about 24 hours under the conditions of 37° C. and 5% CO2. 3 μg of any one of the co-receptor expression plasmids produced, 1.5 μg of any one of the odorant receptor expression plasmids produced, and 8 μg of Aequorin expression plasmid were mixed with 12.5 μL of Plus reagent and 31.25 μL of LIPOFECTAMINE LTX (manufactured by Invitrogen, Inc.), and the mixture was maintained for 30 minutes. Subsequently this liquid mixture was transfected into the above-mentioned cells. After 4 hours from the initiation of transfection, the cells were inoculated onto a 96-well plate at a concentration of 9×10^4 cells/well, and the cells were cultured in DMEM medium containing 10% FBS (manufactured by Nacalai Tesque, Inc.) for about 24 hours under the conditions of 37° C. and 5% CO2. Thereby, transformed cells having a co-receptor expression plasmid, an odorant receptor expression plasmid, and an aequorin expression plasmid transiently incorporated therein were obtained.
Aequorin is activated when hound to a calcium ion, and oxidizes a substrate such as coelenterazine, thus emitting light. […] Therefore, whether an odorant receptor complex functions an ion channel as a result of addition of a substance to be detected, can be measured from the change in the amount of luminescence.
A culture fluid of the transformed cells was removed, and the medium was exchanged with Hanks-HEPES (20 mM, pH 7.4) including Assay buffer (0.5 μM coelenterazine h (manufactured by Promega Corporation) and 0.3% BSA. culture system was left to stand for another 4 hours at room temperature. Subsequently, a substance to be detected, which corresponded to an odorant receptor, was added to the cell culture using FLEXSTATION 3 (manufactured by Molecular Devices, LLC), and at the same time, the amount of luminescence of the cells was measured. As a control substance, the amount of luminescence in the cells to which dimethyl sulfoxide had been added was designated as 1, and the amount or luminescence of cells to which the substance to be detected was added was calculated as a relative value.
(§1) Cells into which: • an expression plasmid of odorant receptor AaOR8; • an expression plasmid of any one of co-receptor AaORCO or DmORCO, or various chimeric co-receptors Dm-AaORCO having different positions of recombination [Dm(NT-EC1)AaORCO, Dm(NT-TM3)AaOROC, Dm(NT-TM4)AaORCO, Dm(NT-TM5)AaORCO, or Dm(NT-TM6)AaORCO]; and • an aequorin expression plasmid had been incorporated were used, and the amount of luminescence was measured as explained above. 1-Octen-3-ol was used as a substance to be detected, and 1-octen-3-ol was added to the culture fluid at a concentration of 10^−4 M, 10^−5 M, 10^−6 M, 10^−7 M, 10^−8 M, 10^−9 M, or 10^−10 M. The results are presented in FIG. 1.
as §1, with “AmORCO” for “AaORCO”, “Dm-AmORCO” for “Dm-AaORCO”, “[Dm(NT-TM3)AmOROC, Dm(NT-TM4)AmORCO, Dm(NT-TM5)AmORCO,” for “[Dm(NT-EC1)AaORCO, Dm(NT-TM3)AaOROC, Dm(NT-TM4)AaORCO, Dm(NT-TM5)AaORCO,”, “Dm(NT-TM6)AmORCO];” for “Dm(NT-TM6)AaORCO];”, “2. […]” for “1.”

| Molecule | intensity of response (relative amount of luminescence) to 1-octen-3-ol | intensity of response to 1-octen-3-ol (compared to cells that expressed original AaORCO) |
| --- | --- | --- |
| Dm(NT-TM4)AaORCO: chimeric co-receptor: NT to TM4 (residues 1-234) from Drosophila co-receptor, IC2 to C-terminal domain from Aedes co-receptor; SEQ ID NO:71 (protein) MTTSMQPSKYTGLVADLMPNIRAMKYSGLFMHNFTGGSAFMKKVYSSVHLVFLLMQFTFILVNMALNAEEVNELSGNTITTLFFTHCITKFIYLAVNQKNFYRTLNIWNQVNTHPLFAESDARYHSIALAKMRKLFFLVMLTTVASATAWTTITFFGDSVKMVVDHETNSSIPVEIPRLPIKSFYPWNASHGMFYMISFAFQIYYVLFSMIHSNLCDVMFCSWLIFACEQLQHLKGIMRPLMELSATLDTYRPNSAALFRVASAGSKSELILNEEKDPDTKDFDLNGIYNSKADWGAQFRAPSTLQTFGDNGINGNPNGLTKKQELMVRSAIKYWVERHKHVVRLVSAIGETYGAALLLHMLTSTIKLTLLAYQATKIDALNVYGLTVIGYLVYALAQVFLFCIFGNRLIEESSSVMEAAYSCHWYDGSEEAKTFVQIVCQQCQKAMTISGAKFFTVSLDLFASVLGAVVTYFMVLVQLK | responded more strongly to 1-octen-3-ol; also recorded: the intensity of response to 1-octen-3-ol was higher | – |
| Dm(NT-636)AaORCO: chimeric co-receptor: N-terminus to residue 212 from Drosophila co-receptor, residue 213 to C-terminus from Aedes co-receptor; SEQ ID NO:78 (protein) MTTSMQPSKYTGLVADLMPNIRAMKYSGLFMHNFTGGSAFMKKVYSSVHLVFLLMQFTFILVNMALNAEEVNELSGNTITTLFFTHCITKFIYLAVNQKNFYRTLNIWNQVNTHPLFAESDARYHSIALAKMRKLFFLVMLTTVASATAWTTITFFGDSVKMVVDHETNSSIPVEIPRLPIKSFYPWNASHGMFYMISFAFQIYYVLFSMIHANLADVMFCSWLLFTCEQLQHLKGIMRPLMELSATLDTYRPNSAALFRVASAGSKSELILNEEKDPDTKDFDLNGIYNSKADWGAQFRAPSTLQTFGDNGINGNPNGLTKKQELMVRSAIKYWVERHKHVVRLVSAIGETYGAALLLHMLTSTIKLTLLAYQATKIDALNVYGLTVIGYLVYALAQVFLFCIFGNRLIEESSSVMEAAYSCHWYDGSEEAKTFVQIVCQQCQKAMTISGAKFFTVSLDLFASVLGAVVTYFMVLVQLK | the intensity of response to 1-octen-3-ol was decreased | – |
| Dm(792)AaORCO: chimeric co-receptor: N-terminus to residue 264 from Drosophila co-receptor, residue 265 to C-terminus from Aedes co-receptor; SEQ ID NO:74 (protein) MTTSMQPSKYTGLVADLMPNIRAMKYSGLFMHNFTGGSAFMKKVYSSVHLVFLLMQFTFILVNMALNAEEVNELSGNTITTLFFTHCITKFIYLAVNQKNFYRTLNIWNQVNTHPLFAESDARYHSIALAKMRKLFFLVMLTTVASATAWTTITFFGDSVKMVVDHETNSSIPVEIPRLPIKSFYPWNASHGMFYMISFAFQIYYVLFSMIHSNLCDVMFCSWLIFACEQLQHLKGIMKPLMELSASLDTYRPNSAALFRSLSAGSKSELILNEEKDPDTKDFDLNGIYNSKADWGAQFRAPSTLQTFGDNGINGNPNGLTKKQELMVRSAIKYWVERHKHVVRLVSAIGETYGAALLLHMLTSTIKLTLLAYQATKIDALNVYGLTVIGYLVYALAQVFLFCIFGNRLIEESSSVMEAAYSCHWYDGSEEAKTFVQIVCQQCQKAMTISGAKFFTVSLDLFASVLGAVVTYFMVLVQLK | – | the intensity of response to 1-octen-3-ol was decreased |

From US11919930B2, “Odorant receptor co-receptor” (Sumitomo Chemical Company, Limited, priority 2016, dated 2024)
